Source: the supplement of paper PMC10126150
± gives the standard deviation of the averaged measurements.

Tested on: ATP
Assay: switch fluorescence ratio, 500 uM ATP over buffer (Cy3 cluster intensity, sum of 5 cycles each) (fold (ratio)); higher = stronger signal-on switching upon ATP binding; sequences stand for … in TCGTCGGCAGCGTCAGATGTGTATAAGAGACAGTTTTTTTTTTTTTTTTTTTTTTTTT…TC
Settings: aptamer strand: ATP DNA aptamer (quencher-CACCTGGGGGAGTATTGCGGAGGAAGG + anchor), 100 nM annealed; ATP concentration: 500 uM
How it was run: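 Cy3-labelled switching-strand clusters on a modified Illumina MiSeq flow-cell were annealed to 100 nM quencher-labelled ATP aptamer and imaged first in selection buffer, then after 15 min with 500 uM ATP at 22 °C. NaOH stripping and re-annealing separated each of five buffer/ATP cycles, and clusters outside 100-1000 RFU were excluded. The fluorescence ratio sums target-cycle Cy3 intensity over buffer-cycle Cy3 intensity per cluster and averages it per switch-domain sequence.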
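Note: ATP exposure 15 min at 22 °C before imaging.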

| Sequence | switch fluorescence ratio |
| --- | --- |
| AGGGGGGGC | 0.991 ± 0.015 |
| GAACTTCTGG | 0.985 ± 0.038 |
| CTGGGACTTG | 1 ± 0.013 |
| ATTAAAGGAT | 0.995 ± 0.033 |
| TGGTTGGT | 0.9755 ± 0.0095 |
| AGAAACAGCT | 1.04 ± 0.046 |
| GAAATTGCAT | 0.996 ± 0.02 |
| ATAGGTCCCG | 1 ± 0.017 |
| ATTGTGAGAC | 0.986 ± 0.01 |
| AGTATCTTTA | 0.9913 ± 0.0096 |
| ATTGTAGACC | 1.0225 ± 0.00081 |
| AGATTGGGTT | 0.967 ± 0.024 |
| ACAAAATGTT | 1.02 ± 0.019 |
| TATTGACGCC | 1.09 ± 0.033 |
| TTTCGGTTGT | 1 ± 0.022 |
| GCGTCAACTC | 1.1 ± 0.016 |
| AATCGGGGGG | 0.974 ± 0.013 |
| GAAAGAGGGT | 1.03 ± 0.035 |
| AAGGGGGAGC | 0.988 ± 0.042 |
| GGACAAACTC | 1.04 ± 0.036 |
| GGGGCAGGTA | 1.04 ± 0.047 |
| ATTAAATTAG | 1.04 ± 0.051 |
| CGGTAGAGGT | 1.01 ± 0.016 |

| Sequence | switch fluorescence ratio |
| --- | --- |
| ATGTTATTTG | 0.963 ± 0.022 |
| TTTAGGTCAT | 1.01 ± 0.083 |
| AGTAGTGGGT | 1.02 ± 0.056 |
| TCGGGTGGTG | 0.92 ± 0.16 |
| TTTTTGGTGA | 0.984 ± 0.013 |
| TCGATAATTA | 0.97 ± 0.09 |
| TTGTTACGGT | 0.981 ± 0.041 |
| ACGGGCGGCG | 0.979 ± 0.047 |
| TAATTTACTA | 1.04 ± 0.03 |
| GGTGGGGAAC | 1.03 ± 0.068 |
| TCTACCTACA | 1.33 ± 0.051 |
| TGGGGACCGT | 1 ± 0.03 |
| AGTTAGGTTA | 1 ± 0.014 |
| ACGGTTGAAT | 0.9882 ± 0.0084 |
| TGAAATGAAT | 0.994 ± 0.02 |
| ATCCTTGATA | 1.03 ± 0.016 |
| TCGGCAGTGG | 1.03 ± 0.027 |
| TCCTTATAGG | 1 ± 0.044 |
| GGGGGATAAG | 1 ± 0.028 |
| TCTTTCTTTC | 1.01 ± 0.03 |
| TTAACGAGTG | 0.999 ± 0.022 |
| AGTATTGCAG | 0.9322 ± 0.002 |
| AAAGCTGTAG | 1.02 ± 0.038 |

| Sequence | switch fluorescence ratio |
| --- | --- |
| TGATTCGTTC | 1.04 ± 0.033 |
| AGTTATACGT | 1.03 ± 0.048 |
| GCGGGGGGGG | 1.02 ± 0.041 |
| TATGTCCCGT | 0.974 ± 0.029 |
| ACAGATGGGA | 1.04 ± 0.046 |
| GAGGGGTAAG | 1 ± 0.015 |
| GGTATATCTG | 1.01 ± 0.039 |
| GGGATTCGGG | 1.02 ± 0.022 |
| GGGCACAGAA | 0.9751 ± 0.0022 |
| GGTGATTGAC | 1.18 ± 0.3 |
| AAATTTTAGG | 1.034 ± 0.0013 |
| TTTGCTAGTT | 0.988 ± 0.009 |
| TGGACCGGGC | 1 ± 0.025 |
| AGGGAAAGCG | 0.996 ± 0.044 |
| CCTAACCTCT | 1.01 ± 0.032 |
| TTTGTAACAT | 0.966 ± 0.047 |
| CGTGAACATA | 1.02 ± 0.034 |
| CGGTGCTTGT | 1.02 ± 0.037 |
| AAATTTGGTG | 1.14 ± 0.14 |
| GGGTAGACTG | 0.955 ± 0.03 |
| TTGGCATGGC | 1.04 ± 0.026 |
| ACAGGGGTCT | 1.06 ± 0.024 |
| GGTGCTAGTG | 0.999 ± 0.015 |

| Sequence | switch fluorescence ratio |
| --- | --- |
| TATCGAGATA | 1.02 ± 0.04 |
| TATTTAGCCC | 1.047 ± 0.0069 |
| CGATAGATGT | 1 ± 0.024 |
| CTTTAACGTT | 0.981 ± 0.0073 |
| TTCAGGAGGA | 1.03 ± 0.011 |
| ATGTATTGGT | 0.991 ± 0.026 |
| AAGAAATGGT | 1.05 ± 0.043 |
| TCGTTGTTAT | 1 ± 0.023 |
| GTTATAGGGG | 0.99 ± 0.018 |
| GGGGGAGAGC | 1.03 ± 0.043 |
| GGTACGAAAG | 1.01 ± 0.026 |
| AAAAATACGG | 0.965 ± 0.057 |
| TCGAAGGGCT | 1.016 ± 0.01 |
| ATGTGGAGGG | 0.983 ± 0.033 |
| GAGACTGATG | 1.05 ± 0.14 |
| AGGGGTATAG | 0.995 ± 0.068 |
| ACAAGGTGTT | 1.2 ± 0.022 |
| TTTTAGAGT | 0.988 ± 0.024 |
| ATGGCGGATG | 1.01 ± 0.063 |
| GACATAAAAG | 1.03 ± 0.053 |
| TTATCAAAGC | 0.992 ± 0.033 |
| TATGTTGGGG | 0.957 ± 0.018 |
| TTGTCTAATT | 1.007 ± 0.0081 |

| Sequence | switch fluorescence ratio |
| --- | --- |
| GTATGCGGGG | 0.996 ± 0.02 |
| GTGCCATGTT | 0.9816 ± 0.0083 |
| CTTTAAAAAG | 1 ± 0.059 |
| GGGCAAGTCA | 1.02 ± 0.014 |
| TGGCGCCGAT | 0.9608 ± 0.0026 |
| TAATTTCTGT | 1.01 ± 0.024 |
| TTTCAGGGAG | 1.04 ± 0.056 |
| ATAGGATTTA | 0.989 ± 0.013 |
| TTTATAGTTT | 1.01 ± 0.026 |
| CGGACCTAGT | 0.9689 ± 0.0042 |
| GGACAGTGTA | 1.01 ± 0.02 |
| TTTAGCAGGG | 1.01 ± 0.026 |
| TATCTATATT | 1 ± 0.016 |
| ATGGCTTGGA | 0.996 ± 0.029 |
| CGCTTGAGA | 1.04 ± 0.026 |
| GATGGAGGTG | 0.997 ± 0.011 |
| TTTTCTACTT | 0.999 ± 0.027 |
| ATGCGTACTT | 1.01 ± 0.02 |
| GCCACGGCGA | 1.02 ± 0.021 |
| CAGGTCTTGC | 1 ± 0.015 |
| CGTATGGGGA | 1 ± 0.023 |
| GCCGGGGAGG | 0.984 ± 0.038 |
| CTTGGTAATA | 1.062 ± 0.0066 |

| Sequence | switch fluorescence ratio |
| --- | --- |
| TTATAGGCGG | 0.981 ± 0.016 |
| TGGTTTATAT | 1 ± 0.013 |
| TTAGTTTCTA | 0.99394 ± 0.00081 |
| AAAGGCCCCC | 1.0047 ± 0.00068 |
| GATTATTGCT | 0.988 ± 0.037 |
| AAGGGTATGT | 0.981 ± 0.029 |
| TCATATACGA | 1.09 ± 0.015 |
| TAAAAGTGAG | 1 ± 0.022 |
| CACTAATGGT | 1.073 ± 0.0072 |
| AACAGCCACA | 1.11 ± 0.028 |
| TTAGTGCCGG | 0.994 ± 0.016 |
| AATTTGAATT | 0.98 ± 0.013 |
| GGTGGGGAAT | 0.979 ± 0.022 |
| GTAGGGCATG | 0.96 ± 0.026 |
| TGGGAGGATT | 1 ± 0.027 |
| ATATATTTTG | 0.972 ± 0.03 |
| TTTTTCATCA | 0.982 ± 0.036 |
| ACGCGGCTAT | 1.06 ± 0.033 |
| ATCCGGGCGC | 1.08 ± 0.1 |
| CAAGATATAT | 1 ± 0.016 |
| TTAAGTTGGG | 0.989 ± 0.038 |
| GTTTCTCATC | 1.02 ± 0.011 |
| AGGTAGCGGC | 0.9911 ± 0.0095 |

| Sequence | switch fluorescence ratio |
| --- | --- |
| TACTAAGAAT | 2.35 ± 1.9 |
| GGATGCTGAT | 1 ± 0.047 |
| TTTACCGGAG | 1.15 ± 0.089 |
| TATCGGCAGC | 1.07 ± 0.043 |
| TGGTGAAGGG | 0.976 ± 0.016 |
| TTTACCGGGA | 1.13 ± 0.15 |
| AGGATTCGGT | 1.01 ± 0.027 |
| GTTGGGAGGA | 0.989 ± 0.018 |
| CACAAGCGAT | 1.42 ± 0.063 |
| CGTCAATTTA | 1.12 ± 0.12 |
| GATTTTTTGA | 1.01 ± 0.011 |
| CAGTGGGTTT | 0.97 ± 0.032 |
| TTTTTCACGG | 0.999 ± 0.034 |
| TTTGTCTAG | 1.022 ± 0.00058 |
| TGATGCAATT | 1.36 ± 0.24 |
| GAGGGTCCTA | 0.9994 ± 0.0054 |
| ATGTGGGGCC | 0.995 ± 0.042 |
| TTAATTGCTT | 1.01 ± 0.043 |
| GCCGGGGGTG | 1.04 ± 0.023 |
